Experimental findings from patent US20250270301A1 (GEN2 NEUROSCIENCE, published 2025) are described below.

B1: #44_VH4VK4 humanised hIgG1 (antibody, V domains shown)
VH: QVQLQESGPGLVKPSETLSLTCTVSGIDLSSYAMAWVRQAPGKGLEWIGCIDRRGGTFYASWVKGRFTISKDTSKTTVDLQMTSLTAEDTATYFCARDSGAFDPWGQGTLVTVSS
VL: DIQMTQSPSSLSASVGDRVTITCQASQSVYDNYLAWYQQKPGQPPKLLIHAASNLASGVPSRFSGSGSGTEFTLTISSLQPDDFATYYCLGEFSCTTTDCNVFGGGTKVEIK
notes: also called VH4Vκ4; pVH/pVL
B2: #44_VH4VK4_H01/pVL (antibody, V domains shown)
VH: B1 VH with S99V, A101S, P104V
VL: B1 VL
notes: also called Clone VH4_H01; #44_VH4_H01
B3: #44_VH4VK4_H15/pVL (antibody, V domains shown)
VH: B1 VH with C50A, R53S, R54V, G56N
VL: B1 VL
notes: also called Clone VH4_H15; #44_VH4_H15
B4: #44_VH4VK4_H18/pVL (antibody, V domains shown)
VH: B1 VH with C50A, R53A, R54G, G56N
VL: B1 VL
notes: also called Clone VH4_H18; #44_VH4_H18
B5: #44_VH4VK4_H14/pVL (antibody, V domains shown)
VH: B1 VH with C50A, R53S, R54A, G56S, F67S
VL: B1 VL
notes: also called Clone VH4_H14; #44_VH4_H14
B6: #44_VH4VK4_H12/pVL (antibody, V domains shown)
VH: B1 VH with C50A, R53A, G56S
VL: B1 VL
notes: also called Clone VH4_H12; #44_VH4_H12
B7: #44_VH4VK4_H13/pVL (antibody, V domains shown)
VH: B1 VH with C50A, R53S, R54A, G56N
VL: B1 VL
notes: also called Clone VH4_H13; #44_VH4_H13
B8: #44_VH4VK4_H10/pVL (antibody, V domains shown)
VH: B1 VH with C50A, R53A, G56R
VL: B1 VL
notes: also called Clone VH4_H10; #44_VH4_H10
B9: #44_VH4VK4_H16/pVL (antibody, V domains shown)
VH: B1 VH with C50A, R54A, G56N
VL: B1 VL
notes: also called Clone VH4_H16; #44_VH4_H16
B10: #44_VH4VK4_H09/pVL (antibody, V domains shown)
VH: B1 VH with C50A, R53A, G56N
VL: B1 VL
notes: also called Clone VH4_H09; #44_VH4_H09
B11: #44_VH4VK4_H11/pVL (antibody, V domains shown)
VH: B1 VH with C50A, R53A, G56A
VL: B1 VL
notes: also called Clone VH4_H11; #44_VH4_H11
B12: #44_VH4VK4_H20/pVL (antibody, V domains shown)
VH: B1 VH with C50A, R53S, G56S
VL: B1 VL
notes: also called Clone VH4_H20; #44_VH4_H20
B13: #44_VH4VK4 pVH/L2 (antibody, V domains shown)
VH: B1 VH
VL: DIQMTQSPSSLSASVGDRVTITCQASQSVYDNYLAWYQQKPGQPPKLLIHAASNLASGVPSRFSGSGSGTEFTLTISSLQPDDFATYYCLGEFSCQDTDCNVFGGGTKVEIKR
notes: also called Clone VK4_L2; #44_VK4_L2
B14: #44_VH4VK4_H19/pVL (antibody, V domains shown)
VH: B1 VH with C50A, R53S, G56A
VL: B1 VL
notes: also called Clone VH4_H19; #44_VH4_H19
B15: #44_VH4VK4_H17/pVL (antibody, V domains shown)
VH: B1 VH with C50A, R54V, G56N
VL: B1 VL
notes: also called Clone VH4_H17; #44_VH4_H17

Where a chain is given by its changes, count along the chain named.

T2 sequence (P10636 other isoform, or with tags, fused parts or gaps limits assumed): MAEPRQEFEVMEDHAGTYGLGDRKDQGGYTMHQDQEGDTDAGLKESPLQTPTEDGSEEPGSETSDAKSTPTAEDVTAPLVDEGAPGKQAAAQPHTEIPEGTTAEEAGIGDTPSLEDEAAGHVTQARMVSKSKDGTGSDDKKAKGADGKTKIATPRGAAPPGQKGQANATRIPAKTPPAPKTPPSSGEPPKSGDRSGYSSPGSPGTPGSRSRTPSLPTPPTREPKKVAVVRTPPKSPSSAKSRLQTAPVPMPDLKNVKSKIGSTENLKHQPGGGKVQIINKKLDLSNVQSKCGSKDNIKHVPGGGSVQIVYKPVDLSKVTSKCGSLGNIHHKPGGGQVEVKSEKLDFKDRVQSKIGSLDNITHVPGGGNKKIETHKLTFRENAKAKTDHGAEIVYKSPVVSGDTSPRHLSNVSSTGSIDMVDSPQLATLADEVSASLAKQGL
T1 sequence (P02769 25-607 limits assumed): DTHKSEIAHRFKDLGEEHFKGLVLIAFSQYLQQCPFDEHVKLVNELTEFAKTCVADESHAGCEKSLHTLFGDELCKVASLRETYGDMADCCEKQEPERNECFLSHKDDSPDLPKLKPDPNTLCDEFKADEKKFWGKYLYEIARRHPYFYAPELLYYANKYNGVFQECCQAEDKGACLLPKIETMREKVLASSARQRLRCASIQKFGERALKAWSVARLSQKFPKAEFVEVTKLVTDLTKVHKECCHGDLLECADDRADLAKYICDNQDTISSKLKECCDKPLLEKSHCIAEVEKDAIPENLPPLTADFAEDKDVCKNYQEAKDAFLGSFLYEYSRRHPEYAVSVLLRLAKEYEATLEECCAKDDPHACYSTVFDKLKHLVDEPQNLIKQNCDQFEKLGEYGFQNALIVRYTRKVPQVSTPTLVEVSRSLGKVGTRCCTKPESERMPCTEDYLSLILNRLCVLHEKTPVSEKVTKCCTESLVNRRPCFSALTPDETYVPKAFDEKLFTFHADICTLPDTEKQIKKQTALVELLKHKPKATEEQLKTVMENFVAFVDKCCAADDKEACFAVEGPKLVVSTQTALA
Sequence of aggregated (oligomeric) P301S 2N4R tau, pHrodo-labelled (P10636 other isoform, or with tags, fused parts or gaps P301S P301S): as the sequence (P10636 other isoform, or with tags, fused parts or gaps limits assumed) above, with P301S counted along it

The first assay concerns the target T1, Bovine serum albumin (bovine, UniProt P02769 25-607).
T1 construct: also called BSA
Kind of assay: ELISA on 1% BSA, HEK supernatant, anti-human IgG-HRP, n=1. An outline of the steps:
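Wells coated with antigen, blocked 1 h RT in 5% milk/TBS; HEK293 transient-transfection supernatants applied at 1:100 in 1% BSA/TBS for 1 h RT. Bound hIgG1 detected with anti-human IgG-HRP (1:2000), TMB 15 min, acid stop, OD450; single replicate.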
(In general: An ELISA detects its analyte on a solid surface through an enzyme-linked reagent.)
Consider B1, for which the binding result is reported as “no binding (tested: supernatant 1:100)”.

In a further assay the target is monomeric P301S 2N4R tau, pHrodo-labelled (human, UniProt P10636 1-758, pHrodo Red maleimide label). Briefly: cell-based or functional assay.
Sequence of monomeric P301S 2N4R tau, pHrodo-labelled (P10636 other isoform, or with tags, fused parts or gaps P301S P301S): as the sequence (P10636 other isoform, or with tags, fused parts or gaps limits assumed) above, with P301S counted along it
For the molecule B1, the “increase of monomeric tau uptake into human iPSC-derived microglia” value is 59.4%, the “inhibition of monomeric tau uptake into human astrocytes” value was 52.3% and the “inhibition of monomeric tau uptake into human iPSC-derived astrocytes” value worked out at 94.1%.
Consider B2, for which the “inhibition of monomeric tau uptake into human astrocytes” value is 67.5% and the “inhibition of monomeric tau uptake into human iPSC-derived neurons” value was 89.2%.

A further assay addresses aggregated (oligomeric) P301S 2N4R tau, pHrodo-labelled (human, UniProt P10636 1-758, pHrodo Red maleimide label). Briefly: cell-based or functional assay.
With B1, the “increase of aggregated tau uptake into human iPSC-derived microglia” value was found to be 115%, the “inhibition of aggregated tau uptake into human astrocytes” value came out at 41.3% and the “inhibition of aggregated tau uptake into human iPSC-derived astrocytes” value turned out to be 61.9%.
For B2, the “inhibition of aggregated tau uptake into human astrocytes” value came out at 38.6% and the “inhibition of aggregated tau uptake into human iPSC-derived neurons” value came out at 61.1%.

In a further assay the target is T1, Bovine serum albumin. Kind of assay: ELISA on 1% BSA, HEK supernatant, anti-human IgG-HRP, n=1. The source holds these as a separate data set.
On to B2, for which the binding result is given as “no binding (tested: 30 ng/ml (legend 1:100))”.
For the molecule B3, the binding result is “no binding (tested: 30 ng/ml (legend 1:100))”.
Take B4: the binding result is reported as “no binding (tested: 30 ng/ml (legend 1:100))”.
Still for that read-out and setting: to B5 belongs “no binding (tested: 30 ng/ml (legend 1:100))”; to B6, “no binding (tested: 30 ng/ml (legend 1:100))”; to B7, “no binding (tested: 30 ng/ml (legend 1:100))”.
The same measure, in the same setting: the value for B8 was “no binding (tested: 30 ng/ml (legend 1:100))”; that for B9 was “no binding (tested: 30 ng/ml (legend 1:100))”; that for B10 was “no binding (tested: 30 ng/ml (legend 1:100))”.
The same measure, in the same setting: the value for B11 was “no binding (tested: 30 ng/ml (legend 1:100))”.
As for B12, the binding result is reported as “no binding (tested: 30 ng/ml (legend 1:100))”.
For B13, the binding result was “no binding (tested: 30 ng/ml (legend 1:100))”.
For the molecule B14, the binding result is “no binding (tested: 30 ng/ml (legend 1:100))”.
As for B15, the binding result was “no binding (tested: 30 ng/ml (legend 1:100))”.

Another assay addresses T2, full length recombinant human 2N4R tau (human, UniProt P10636 1-758).
T2 construct: bought from rPeptide; pHrodo Red maleimide-labelled where it stands in uptake assays; also called tau1-441; full length tau
Kind of assay: SPR SCK, IgG on Protein A, tau in flow.
A word on the Kd: it is the concentration at which binding is half-saturated. What is called koff is a measure of how fast the partners let go of each other. As usually defined, the kon is the rate constant with which the complex forms. As to B1, the “Fold change (KD, to pVH/pVL)” value was 1; the equilibrium dissociation constant (Kd) was found to be 6.58 nM; the koff is 0.012 s⁻¹; the kon amounted to 1.82e+06 M⁻¹ s⁻¹.
The matching figures for B2: 2.43, 2.71 nM, 0.00805 s⁻¹ and 2.97e+06 M⁻¹ s⁻¹.
In the case of B3, the “Fold change (KD, to pVH/pVL)” value was 0.75; the Kd was found to be 8.76 nM; the koff turned out to be 0.0361 s⁻¹; the kon worked out at 4.12e+06 M⁻¹ s⁻¹.
In the same order, the values of B4 are 0.19, 34.2 nM, 0.00983 s⁻¹ and 287000 M⁻¹ s⁻¹.
On to B5, for which the “Fold change (KD, to pVH/pVL)” value worked out at 1.03 and the dissociation constant (Kd) is 6.37 nM.
As for B6, the “Fold change (KD, to pVH/pVL)” value worked out at 1.09; the Kd was determined as 6.04 nM; the dissociation rate constant (koff) worked out at 0.251 s⁻¹; the kon came out at 4.16e+07 M⁻¹ s⁻¹.
With B7, the “Fold change (KD, to pVH/pVL)” value is 0.38; the dissociation constant Kd amounted to 17.3 nM; the off-rate (koff) was determined as 0.0148 s⁻¹; the kon came out at 855000 M⁻¹ s⁻¹.
In the case of B8, the “Fold change (KD, to pVH/pVL)” value worked out at 0.66 and the Kd came to 9.95 nM.
In the same order, the values of B9 are 0.69 and 9.51 nM.
Take B10: the “Fold change (KD, to pVH/pVL)” value stood at 0.67; the Kd amounted to 9.85 nM; the dissociation rate constant (koff) turned out to be 0.032 s⁻¹; the kon was 3.25e+06 M⁻¹ s⁻¹.
On to B11, for which the “Fold change (KD, to pVH/pVL)” value stood at 1.16 and the equilibrium dissociation constant (Kd) is 5.65 nM.
B12: the “Fold change (KD, to pVH/pVL)” value amounted to 0.75; the Kd was found to be 8.78 nM; the koff is 0.0404 s⁻¹; the kon came to 4.6e+06 M⁻¹ s⁻¹.
With B13, the “Fold change (KD, to pVH/pVL)” value came to 0.89 and the Kd turned out to be 7.38 nM.
B14: the “Fold change (KD, to pVH/pVL)” value stood at 0.68; the Kd is 9.72 nM; the koff came out at 0.0122 s⁻¹; the kon was determined as 1.26e+06 M⁻¹ s⁻¹.
In the same order, the values of B15 are 1.03, 6.36 nM, 0.306 s⁻¹ and 4.81e+07 M⁻¹ s⁻¹.

A further assay deals with T2, full length recombinant human 2N4R tau. Kind of assay: SPR MCK, IgG on Protein A, tau in flow. The method, then:
Slight variations in RMAX are considered likely to be due to differences in ligand capture and not reflective of significant variation in antibody binding characteristics.
22.2 Assessment of antibody binding to tau (Biacore MCK analysis): Binding of anti-tau hIgG1 to full length recombinant 2N4R tau (Rpeptide; SEQ ID NO: 2) was assessed using the Biacore T200 (GE Healthcare, Chicago, IL, USA) running Biacore T200 Evaluation Software V2.0.1. hIgG1 were immobilised on a Protein A capture sensor chip in running buffer (HBS-EP+ buffer containing 1 mg/mL BSA) at 25° C., captured to ˜50 RU at […]. For multi-cycle kinetics experiments, recombinant 2N4R tau was flowed at concentrations ranging from 0.39 nM to 12.5 nM in running buffer at 40 μL/min, with an association time of 60 s and a dissociation time of 200 s. Curves were compared to a reference cell that was mock immobilized (no antibody present).
B1: the Kd is 5.84 nM, the “Relative KD (to VH0VK0)” value is 1.8, the off-rate (koff) is 0.0316 s⁻¹ and the kon stood at 5.41e+06 M⁻¹ s⁻¹.

Another assay has the same target. Briefly: SPR SCK, IgG on Protein A, tau in flow. This is another data set of the same source. An outline of the steps:
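Antibodies were captured to ~50 RU on a Protein A chip in HBS-EP+ with 1 mg/mL BSA at 25 °C. Tau was injected by single-cycle kinetics at 1.25–10 nM (2-fold), with 60 s association and 200 s dissociation. Signals were referenced to a mock-immobilized cell.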
B1: the Kd stood at 8.12 nM, the “Relative KD (to VH0VK0)” value amounted to 2.12, the koff came to 0.0294 s⁻¹ and the kon was found to be 3.61e+06 M⁻¹ s⁻¹.

The next assay has the same target. Kind of assay: SPR MCK, IgG on Protein A, tau in flow at 100 µL/min.
In the case of B1, the “Fold improvement (KD, to pVH/pVL)” value is 1; the Kd stood at 7.76 nM; the off-rate constant (koff) was determined as 0.0147 s⁻¹; the kon worked out at 1.89e+06 M⁻¹ s⁻¹.
In the case of B2, the “Fold improvement (KD, to pVH/pVL)” value was 1.9; the Kd amounted to 4.01 nM; the koff was 0.00957 s⁻¹; the kon was determined as 2.39e+06 M⁻¹ s⁻¹.
